This note sets out measurements from patent publication US20250263677A1, “BIOCATALYTIC USE OF NONHEME IRON PROTEINS FOR MOLECULAR FUNCTIONALIZATION” (The Johns Hopkins University, priority 2022, published 2025).

Data set [1] can be described thus: Kinetic analyses of 1NF azidation with purified Sav HppD protein variants. In kind it is biochemical. As to the method: Kinetic analyses for wild-type Sav HppD, Az1, and Az2 mediated 1NF azidation were performed in an anaerobic chamber. Ferrous ammonium sulfate (10 μL, 100 mM in water) and sodium azide (10 μL, 1 M in water) were added to a buffer solution containing purified Sav HppD protein variant (20 M, 2.4 mL) and the solution was shaken at 600 rpm for 5 minutes. A 1,2-dimethoxyethane solution of N-fluoroamide substrate 1NF was added to the solution (final concentration ranging from 0.25 mM to 15 mM in reaction solution). An aliquot of 100 μL of the reaction mixture was removed at 3, 6, 9, 12, and 15 minutes and quenched by vortexing with 300 μL 6:4 EtOAc/hexanes solution containing 0.5 mM (final concentration) internal standard 1,2,3-trimethoxybenzene. After centrifugation at 12,000 rpm for 10 mins, an aliquot (200 μL) of the organic layer was taken for GCMS analysis for product quantification.

The nature of data set [2]: Azidation reaction condition optimization with Sav HppD Az1 and Az2 (whole E. coli cells). In kind it is biochemical.
Data set [3] is described as follows: 1NF azidation with Sav HppD variants from directed evolution (whole E. coli cells). It is filed as biochemical. Particulars: OD600=10, 10 mM 1NF, 25 mM NaN3, 2.5 mM Fe2+; for TTN (total turnover): KPi pH 7.4, anaerobic, 24 hours. The protocol:
FIGS. 9A-9C is a computational model of the Sav HppD active site, a reaction scheme, and a plot of total turnovers for various Sav HppD variants. […] The computational model was generated from protein database entry 1T47. FIG. 9B provides the azidation reaction scheme for the reaction screened with a high-throughput screening platform. FIG. 9C provides representative variants identified during the directed evolution of Sav HppD. Experiments were performed at analytical scale using suspensions of E. coli expressing Sav HppD variants (OD600=10), 10 mM substrate 1NF, 25 mM NaN3, 2.5 mM Fe^2+ in KPi buffer (pH 7.4) at room temperature under anaerobic conditions for 24 hours.
In a typical experiment, ferrous ammonium sulfate (20 μL, 100 mM in water), sodium azide (20 μL, 1 M in water), and N-fluoroamide substrate (20 μL, 1.5 M in DME) were added to E. coli harboring non-heme iron enzyme variant (400 μL, adjusted to the appropriate OD600) in a 2 mL screw top GC vial in an anaerobic chamber. The vial was capped and shaken at 680 rpm at room temperature for 24 hours. At the end of the reaction, the vial was opened and the reaction was quenched with 6 mL of a hexanes/ethylacetate solution (4:6 v/v) of internal standard 1,2,3-trimethoxybenzene (0.5 mM final concentration). The reaction mixture was transferred to a 15 mL centrifuge tube, vortexed (10 seconds, 3 times), then centrifuged (10,500×g, 5 min) to completely separate the organic and aqueous layers. An aliquot (200-300 μL) of the organic layer was used for product quantification via GCMS and enantioselectivity via chiral HPLC or chiral GC. The total turnover numbers (TTNs) reported are calculated with respect to non-heme iron enzymes expressed in E. coli and represent the total number of turnovers obtained from the catalyst under the stated reaction conditions.
A high-throughput screening (HTS) platform based on copper-catalyzed azide-alkyne cycloaddition (CuAAC) was utilized for Sav HppD variants, and provided reliable quantification of enzymatic azidation products with a coefficient of variation of 9% and a detection limit of 4 μM. With this HTS platform, more than 5,000 clones generated through error-prone PCR or site-saturation mutagenesis were evaluated.

Data set [4] can be described thus: Substrate scope of enzymatic azidation of N-fluoroamide substrates (whole E. coli cells). It is filed as biochemical. Particulars: across the substrates and conditions tested. As to the method: FIGS. 3A-3C is an illustration with reaction products generated from exemplary substrate compounds. […] Experiments were performed at analytical scale using suspensions of E. coli expressing Sav HppD variants in KPi buffer (pH 7.4) at room temperature under anaerobic conditions for 24 hours. The absolute configuration of enzymatically synthesized azidation product 1N was determined to be S via X-ray crystallography. The absolute configurations of all other azidation products were inferred by analogy. FIG. 3B summarizes a preparative scale synthesis and absolute configuration determination of product 1N. […]
In a typical experiment, ferrous ammonium sulfate (20 μL, 100 mM in water), sodium azide (20 μL, 1 M in water), and N-fluoroamide substrate (20 μL, 1.5 M in DME) were added to E. coli harboring non-heme iron enzyme variant (400 μL, adjusted to the appropriate OD600) in a 2 mL screw top GC vial in an anaerobic chamber. […] An aliquot (200-300 μL) of the organic layer was used for product quantification via GCMS and enantioselectivity via chiral HPLC or chiral GC. The total turnover numbers (TTNs) reported are calculated with respect to non-heme iron enzymes expressed in E. coli and represent the total number of turnovers obtained from the catalyst under the stated reaction conditions. […]

Data set [5] is classed as biochemical, E. coli. The protocol:
The reactions were performed by adding ferrous ammonium sulfate (10 μL, 100 mM in water), sodium azide (10 μL, 1 M in water), and N-fluoroamide substrate 1NF (10 μL, 400 mM in DME) to E. coli harboring non-heme iron enzymes (400 μL, adjusted to OD600=40) in a 2 mL screw top GC vial. The vial was capped and shaken at 680 rpm at room temperature for 24 hours. At the end of the reaction, the vial was opened and the reaction was quenched with 0.8 mL of a hexanes/ethylacetate solution (4:6 v/v) of internal standard 1,2,3-trimethoxybenzene (0.5 mM final concentration). The reaction mixture was transferred to a 2 mL microcentrifuge tube, vortexed (10 seconds, 3 times), then centrifuged (14,000×g, 5 min) to completely separate the organic and aqueous layers. An aliquot (200-300 μL) of the organic layer was used for product quantification via GCMS and enantioselectivity via chiral HPLC or chiral GC.

Where [6] appears, read: 1NF (10 μL, 800 mM), OD600 = 10.
[7] abbreviates: 1NF (10 μL, 1.5M), Fe^2+ (20 μL, 100 mM), NaN3 (40 μL, 1M), OD600 = 10.
Setting [8] is: 1NF (20 μL, 1.5M), Fe^2+ (20 μL, 100 mM), NaN3 (40 μL, 1M), OD600 = 10.
Setting [9] is: whole E. coli cells OD600=40, 1NF, NaN3, Fe2+, 24 hours.
Setting [10] is: 1NF (10 μL, 400 mM), Fe^2+ (10 μL, 100 mM), NaN3 (10 μL, 1M), OD600 = 10.
[11] abbreviates: 1NF (20 μL, 1.5M), Fe^2+ (20 μL, 100 mM), NaN3 (40 μL, 1M), OD600 = 40.

Like-named read-outs stand apart in the source and are kept apart here.

B1: HppD Az1: sextuple mutant Sav HppD V189A F216A P243A N245Q Q255A L367I, SEQ ID NO: 2 (protein)
chain: MTQTTHHTPDTARQADPFPVKGMDAVVFAVGNAKQAAHYYSTAFGMQLVAYSGPENGSRETASYVLTNGSARFVLTSVIKPATPWGHFLADHVAEHGDGVVDLAIEVPDARAAHAYAIEHGARSVAEPYELKDEHGTVVLAAIATYGKTRHTLVDRTGYDGPYLPGYVAAAPIVEPPAHRTFQAIDHCAGNVELGRMNEWVGFYNKVMGFTNMKEAVGDDIATEYSALMSKVVADGTLKVKFAIQEPALAKKKSAIDEYLEFYGGAGVQHIALNTGDIVETVRTMRAAGVQFLDTPDSYYDTLGEWVGDTRVPVDTLRELKILADRDEDGYLLQIFTKPVQDRPTVFFEIIERHGSMGFGKGNFKAIFEAIEREQEKRGNL
For the molecule B1, the “improvement in catalytic efficiency (kcat/KM) compared to the wild-type enzyme” value in data set [1] is on record as “around 2 fold”. Also, the 1/1A is 18.0 in data set [2] (setting [6]); 19.5 in data set [2] (setting [7]); 20.0 in data set [2] (setting [8]); 14.0 in data set [2] (NaN3 (20 μL, 1M)); 16.4 in data set [2] (OD600 = 10); 15.5 in data set [2] (initial conditions). Also, the 1/1F was 52.0 in data set [2] (setting [6]); 47.0 in data set [2] (setting [7]); 55.0 in data set [2] (setting [8]); 52.0 in data set [2] (NaN3 (20 μL, 1M)); 48.0 in data set [2] (OD600 = 10); 54.0 in data set [2] (initial conditions). Further, the TTN in data set [2] (setting [6]) was determined as 2480 ± 30; in data set [2] (setting [7]), 3100 ± 60; in data set [2] (setting [8]), 4290 ± 50; in data set [2] (NaN3 (20 μL, 1M)) it was 1550 ± 40; in data set [2] (OD600 = 10) it was 1940 ± 20; in data set [2] (initial conditions), 1340 ± 40. Besides, the “1N/1A (ratio of 1N to 1A among products)” value in data set [3] came out at 15.5. Besides, the “1N/1F (ratio of 1N to 1F among products)” value in data set [3] worked out at 53.8. Moreover, the “TTN (total turnover)” value in data set [3] is given as 1340 ± 40; in data set [3] (listed as Sav HppD Az1), 1340. Further, in data set [4], the “activity and enantioselectivity” value is listed as “higher activity but lower enantioselectivity than Sav HppD Az2”.

B2: Sav HppD: (4-hydroxyphenyl)pyruvate dioxygenase from Streptomyces avermitilis, SEQ ID NO: 1, Uniprot Q53586 (protein, listed as Streptomyces sp.)
chain: MTQTTHHTPDTARQADPFPVKGMDAVVFAVGNAKQAAHYYSTAFGMQLVAYSGPENGSRETASYVLTNGSARFVLTSVIKPATPWGHFLADHVAEHGDGVVDLAIEVPDARAAHAYAIEHGARSVAEPYELKDEHGTVVLAAIATYGKTRHTLVDRTGYDGPYLPGYVAAAPIVEPPAHRTFQAIDHCVGNVELGRMNEWVGFYNKVMGFTNMKEFVGDDIATEYSALMSKVVADGTLKVKFPINEPALAKKKSQIDEYLEFYGGAGVQHIALNTGDIVETVRTMRAAGVQFLDTPDSYYDTLGEWVGDTRVPVDTLRELKILADRDEDGYLLQIFTKPVQDRPTVFFEIIERHGSMGFGKGNFKALFEAIEREQEKRGNL
Turning to B2, in data set [5] (no azide addition), the “1A % (yield of 1A)” value is on record as 6.5% and the “1F % (yield of 1F)” value is 2.2%. In data set [5] (setting [9]), the “1A % (yield of 1A)” value is listed as 10.0% and the “1F % (yield of 1F)” value amounted to 3.7%. Moreover, the “1N % (yield of 1N)” value in data set [5] (whole E. coli cells OD600=40, 1NF, NaN3, Fe2+, room temperature, 24 hours) turned out to be 33.0 ± 2.0%. In addition, in data set [3], the “1N/1A (ratio of 1N to 1A among products)” value worked out at 3.0, the “1N/1F (ratio of 1N to 1F among products)” value is recorded as 9.0 and the “TTN (total turnover)” value stood at 250 ± 10.

B3: HppD Az2: septuple mutant Sav HppD V189A N191A S230L P243G N245F Q255P L367I, SEQ ID NO: 3 (protein)
chain: MTQTTHHTPDTARQADPFPVKGMDAVVFAVGNAKQAAHYYSTAFGMQLVAYSGPENGSRETASYVLTNGSARFVLTSVIKPATPWGHFLADHVAEHGDGVVDLAIEVPDARAAHAYAIEHGARSVAEPYELKDEHGTVVLAAIATYGKTRHTLVDRTGYDGPYLPGYVAAAPIVEPPAHRTFQAIDHCAGAVELGRMNEWVGFYNKVMGFTNMKEFVGDDIATEYSALMLKVVADGTLKVKFGIFEPALAKKKSPIDEYLEFYGGAGVQHIALNTGDIVETVRTMRAAGVQFLDTPDSYYDTLGEWVGDTRVPVDTLRELKILADRDEDGYLLQIFTKPVQDRPTVFFEIIERHGSMGFGKGNFKAIFEAIEREQEKRGNL
Turning to B3, the “improvement in catalytic efficiency (kcat/KM) compared to the wild-type enzyme” value in data set [1] is “around 2 fold”. In data set [2] (setting [10]), the 1/1A stood at 19.3, the 1/1F was found to be 30.6 and the TTN is reported as 490 ± 20. For the same molecule, in data set [2] (setting [8]), the 1/1A worked out at 7.0, the 1/1F was 18.0 and the TTN was determined as 260 ± 30. Further, in data set [2] (setting [11]), the 1/1A is listed as 21.0, the 1/1F is 34.0 and the TTN stood at 1820 ± 50. Also, in data set [3], the “1N/1A (ratio of 1N to 1A among products)” value is given as 19.3, the “1N/1F (ratio of 1N to 1F among products)” value was found to be 30.6 and the “TTN (total turnover)” value came to 490 ± 20. The “TTN (total turnover)” value in data set [3] (listed as Sav HppD Az2) stood at 490.
